Conditions in all cases: protein: recombinant;recombinant; tags: ;; copies: 1;1; blunt
Data set [1] deals with T1, PPARγ;RXRα (human;human, UniProt P37231;P19793 1-505;1-462, |). Nature of the data set: EMSA; labeled mutant probe; 4 fmol labeled DNA, 3.7 pmol PPARγ, 3.9 pmol RXRα in 20 µl; 20 ng poly(dI.dC), 2.5% glycerol, 0.05% NP-40, 5 mM MgCl2; on ice 20 min; 4% native gel, 1x TBE, 4 °C; pH and salt not given. For orientation: Mobility shift assays separate free from complexed probe on a gel.

Data set [2] deals with T1, PPARγ;RXRα. The data set can be described thus: EMSA; two shifted complexes; anti-PPARγ supershift; 4 fmol labeled DNA, 3.7 pmol PPARγ, 3.9 pmol RXRα in 20 µl; 20 ng poly(dI.dC), 2.5% glycerol, 0.05% NP-40, 5 mM MgCl2; on ice 20 min; 4% native gel, 1x TBE, 4 °C; pH and salt not given.
The target in data set [3] is T1, PPARγ;RXRα. The data set can be described thus: EMSA; positive control; anti-PPARγ supershift; 4 fmol labeled DNA, 3.7 pmol PPARγ, 3.9 pmol RXRα in 20 µl; 20 ng poly(dI.dC), 2.5% glycerol, 0.05% NP-40, 5 mM MgCl2; on ice 20 min; 4% native gel, 1x TBE, 4 °C; pH and salt not given.

B1: CAT L-PPREmt (dsDNA)
DNA 1: TTATGCGGTACCCGCTTCGGTAATTATT
DNA 2: AATAATTACCGAAGCGGGTACCGCATAA
In the case of B1, in data set [1], the binding result is recorded as “no binding”.

B2: CAT B-PPRE (dsDNA)
DNA 1: TCTCCTGACCTGTGATCCGCCCGCCTCG
DNA 2: CGAGGCGGGCGGATCACAGGTCAGGAGA
On to B2, for which, in data set [2], the binding result is recorded as “binds”.

B3: CAT L-PPRE (dsDNA)
DNA 1: TTATGGGGTAAAGGCAGAGGTAATTATT
DNA 2: AATAATTACCTCTGCCTTTACCCCATAA
As for B3, the binding result in data set [2] is “binds”.

B4: CAT B-PPREmt (dsDNA)
DNA 1: TCTCCTGATGTAGGATACTCCTGCCTCG
DNA 2: CGAGGCAGGAGTATCCTACATCAGGAGA
In the case of B4, in data set [1], the binding result is “no binding”.

B5: consensus PPRE (dsDNA)
DNA 1: CAAAACTAGGTCAAAGGTCA
DNA 2: TGACCTTTGACCTAGTTTTG
In the case of B5, in data set [3], the binding result was “binds”.

The values are drawn from publication PMC6345753, “Curcumin inhibits the TGF-β1-dependent differentiation of lung fibroblasts via PPARγ-driven upregulation of cathepsins B and L”.
